From patent US20060053496A1 (UNIVERSITY OF NORTH CAROLINA AT CHAPEL HILL, published 2006)

Target: T1, FLAG-tagged Monarch-1 (human, UniProt P59046 1-1061)
T1 construct: Expressed in transfected 293T cells and immunoprecipitated from lysate with anti-FLAG M2-agarose; also called FLAG-Monarch-1; Caterpiller 19.3; not shown: N-terminal FLAG tag added by PCR
T1 sequence: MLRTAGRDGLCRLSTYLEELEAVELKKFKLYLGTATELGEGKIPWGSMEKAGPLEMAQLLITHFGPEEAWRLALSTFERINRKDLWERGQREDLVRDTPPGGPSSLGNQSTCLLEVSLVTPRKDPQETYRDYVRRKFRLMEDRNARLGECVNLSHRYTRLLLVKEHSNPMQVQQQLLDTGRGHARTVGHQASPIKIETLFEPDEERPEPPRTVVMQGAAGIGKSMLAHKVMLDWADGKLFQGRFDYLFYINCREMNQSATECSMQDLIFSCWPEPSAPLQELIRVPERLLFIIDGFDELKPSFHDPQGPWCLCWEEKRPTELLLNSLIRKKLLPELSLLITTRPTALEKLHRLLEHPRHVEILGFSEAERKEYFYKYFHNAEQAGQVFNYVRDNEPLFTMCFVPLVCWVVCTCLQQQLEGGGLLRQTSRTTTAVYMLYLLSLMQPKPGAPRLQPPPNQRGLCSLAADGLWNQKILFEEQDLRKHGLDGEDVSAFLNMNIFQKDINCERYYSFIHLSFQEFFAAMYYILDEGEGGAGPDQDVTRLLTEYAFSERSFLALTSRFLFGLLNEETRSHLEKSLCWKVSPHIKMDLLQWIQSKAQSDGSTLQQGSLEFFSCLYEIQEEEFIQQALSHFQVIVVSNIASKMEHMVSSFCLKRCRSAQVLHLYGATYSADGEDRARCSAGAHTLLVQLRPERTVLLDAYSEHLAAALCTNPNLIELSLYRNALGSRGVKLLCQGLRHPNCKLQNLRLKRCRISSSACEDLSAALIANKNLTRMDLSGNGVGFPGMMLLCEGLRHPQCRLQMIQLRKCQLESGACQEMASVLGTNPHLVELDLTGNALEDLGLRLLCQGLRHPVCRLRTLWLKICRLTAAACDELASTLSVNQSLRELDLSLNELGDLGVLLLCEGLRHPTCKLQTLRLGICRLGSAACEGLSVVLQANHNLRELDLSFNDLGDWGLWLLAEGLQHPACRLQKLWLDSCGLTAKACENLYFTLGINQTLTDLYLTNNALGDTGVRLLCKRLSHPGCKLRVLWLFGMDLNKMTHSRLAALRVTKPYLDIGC
Test: co-immunoprecipitation from transfected 293T cells (anti-FLAG M2-agarose IP, anti-HA western blot)
Protocol: Transfections and Immunoprecipitations. 2.5 million 293T cells were seeded in 10-cm cell culture plates. Eighteen to twenty-four hours later, 3 μg of each of the indicated plasmids was transfected using FUGENE6™ (Roche, Indianapolis, Ind.) at a 3:1 FUGENE6™ to DNA ratio and the cells were incubated an additional 18 to 24 hours. Cells were lysed in 0.5% NP-40, 150 mM NaCl, 50 mM Tris pH 8.0, 160 mM EDTA, 50 mM NaF, 10 mM sodium phosphate supplemented with protease inhibitor cocktail (Roche, Indianapolis, Ind.). Nuclei were removed and the resulting supernatant was pre-cleared with mouse IgG-conjugated agarose (Sigma, St. Louis) for 1 hour. FLAG®-tagged proteins were subsequently immunoprecipitated overnight with 35 μl M2-agarose equilibrated in lysis buffer. Beads were washed four times in lysis buffer and proteins eluted in sample buffer (20% Glycerol, 4% SDS, 130 mM Tris pH 6.8, 20 mM DTT) for western blot analysis.
Monarch-1 Associates with TRAF6 but not MyD88 or IRAK1. In addition to the proteins identified by MALDI-MS, 293T cells were transfected with Monarch-1 cDNA and one of the following: HA-MyD88, HA-TRAF6, or HA-IRAK1. Twenty-four hours later the cells were lysed and Monarch-1-containing protein complexes were immunoprecipitated with anti-FLAG® M2-agarose beads overnight. […]

binding result: no binding
B1: HA-IRAK1 (enzyme, human, UniProt P51617 1-712, looked up)
chain: MAGGPGPGEPAAPGAQHFLYEVPPWVMCRFYKVMDALEPADWCQFAALIVRDQTELRLCERSGQRTASVLWPWINRNARVADLVHILTHLQLLRARDIITAWHPPAPLPSPGTTAPRPSSIPAPAEAEAWSPRKLPSSASTFLSPAFPGSQTHSGPELGLVPSPASLWPPPPSPAPSSTKPGPESSVSLLQGARPFPFCWPLCEISRGTHNFSEELKIGEGGFGCVYRAVMRNTVYAVKRLKENADLEWTAVKQSFLTEVEQLSRFRHPNIVDFAGYCAQNGFYCLVYGFLPNGSLEDRLHCQTQACPPLSWPQRLDILLGTARAIQFLHQDSPSLIHGDIKSSNVLLDERLTPKLGDFGLARFSRFAGSSPSQSSMVARTQTVRGTLAYLPEEYIKTGRLAVDTDTFSFGVVVLETLAGQRAVKTHGARTKYLKDLVEEEAEEAGVALRSTQSTLQAGLAADAWAAPIAMQIYKKHLDPRPGPCPPELGLGLGQLACCCLHRRAKRRPPMTQVYERLEKLQAVVAGVPGHSEAASCIPPSPQENSYVSSTGRAHSGAAPWQPLAAPSGASAQAAEQLQRGPNQPVESDESLGGLSAALRSWHLTPSCPLDPAPLREAGCPQGDTAGESSWGSGPGSRPTAVEGLALGSSASSSSEPPQIIINPARQKMVQKLALYEDGALDSLQLLSSSSLPGLGLEQDRQGPEESDEFQS
notes: not shown: double 5' (N-terminal) HA tag
